Laboratory results published in the supplement of paper PMC9732359.
± gives the uncertainty stated by the source.

Assay: protein stability index of a GFP-peptide fusion (yeast GPS) (PSI 1-4); higher = more stable; sorted into four equal gates, so the index is relative within each strain
How it was run: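 Plasmids in a pooled yeast library fused tiled 17-residue yeast protein peptides downstream of GFP and also expressed Cherry. Mid-log cultures grown without leucine were sorted into four equal gates by GFP/Cherry fluorescence ratio. Each gate's plasmids were PCR-amplified and Illumina-sequenced, and reads were matched to strains by barcodes. The protein stability index is derived by multiplying each gate's read frequency by its gate number and summing the results.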

| Sequence | protein stability index (doa10∆) | protein stability index (pdr5∆) | protein stability index (san1∆) | protein stability index (ubr1∆) |
| --- | --- | --- | --- | --- |
| AVAHHTDCKFIRVSGAE [RPT6] | 3.04 ± 0.13 | 3.21 ± 0.16 | 3.19 ± 0.14 | 2.92 ± 0.11 |
| DPEKDSINATALAFGYV [SIN4] | 2.16 ± 0.052 | 1.56 ± 0.058 | 1.52 ± 0.15 | 1.82 ± 0.042 |
| LIALSLIMALLQFRPAP [SMC2] | 1.62 ± 0.029 | 1.3 ± 0.026 | 1.36 ± 0.048 | 1.3 ± 0.025 |
| SSIVAIDWASPEYGRII [YGL100W/SEH1] | 2.57 ± 0.13 | 3.16 ± 0.13 | 2.82 ± 0.079 | 2.69 ± 0.061 |
| EELRKHAQKRVSNASAR [SKI6] | 3.25 ± 0.23 | 3.22 ± 0.095 | 3.01 ± 0.11 | 2.89 ± 0.073 |
| CTSLMDIIVAIKIFELK [IRR1] | 2.1 ± 0.2 | 1.41 ± 0.16 | 2.13 ± 0.16 | 1.36 ± 0.072 |
| YTEFIDSFIEKIIPKDI [ITC1] | 2.79 ± 0.12 | 2.11 ± 0.1 | 1.76 ± 0.12 | 1.81 ± 0.053 |
| CSPWSLQISDIPAAGNN [SRB5] | 2.07 ± 0.04 | 2.21 ± 0.04 | 1.96 ± 0.055 | 2.41 ± 0.032 |
| SILRKSSPEEPFMSYSP [SNF12] | 2.64 ± 0.074 | 2.74 ± 0.075 | 2.55 ± 0.088 | 2.79 ± 0.059 |
| KLSCIQLNCIDTQFTKL [SRB8] | 2.09 ± 0.046 | 1.92 ± 0.062 | 2.31 ± 0.091 | 2.61 ± 0.045 |
| MSLTTAAPLLALLRENQ [RPN2] | 2.6 ± 0.19 | 3.31 ± 0.25 | 2.8 ± 0.12 | 3.05 ± 0.08 |
| PGFQLPNRITLTDHRKE [SRB8] | 2.79 ± 0.079 | 2.98 ± 0.084 | 3.14 ± 0.069 | 3.22 ± 0.067 |
| VDKELLEPGCSVLLHHK [RPT2] | 2.95 ± 0.16 | 2.8 ± 0.095 | 2.51 ± 0.17 | 2.66 ± 0.12 |
| IVQIDATPFRQWFEAHY [RPS8A] | 2.425 ± 0.022 | 2.797 ± 0.025 | 2.626 ± 0.023 | 2.697 ± 0.019 |
| AITISNSIDINYKGLPK [SMC1] | 2.48 ± 0.063 | 2.83 ± 0.054 | 2.54 ± 0.073 | 2.98 ± 0.039 |
| GGQGNTDDYFEELRDLY [FAS1] | 3.22 ± 0.088 | 3.51 ± 0.073 | 3.3 ± 0.057 | 3.28 ± 0.059 |
| QPSDVMFNDLNSMDISM [MED2] | 2.63 ± 0.043 | 2.99 ± 0.053 | 3.11 ± 0.043 | 2.76 ± 0.048 |
| TIYNLQHHVTDADKLSF [YML031W/NDC1] | 1.94 ± 0.04 | 2.33 ± 0.053 | 1.98 ± 0.061 | 2.06 ± 0.04 |
| HTATDIYQTLIALNLDT [SNF2] | 2.11 ± 0.032 | 2.36 ± 0.034 | 1.88 ± 0.046 | 1.93 ± 0.024 |
| TKRSIAIVFEEIKNWIS [YMR129W/POM152] | 1.41 ± 0.043 | 1.82 ± 0.045 | 1.44 ± 0.076 | 1.91 ± 0.052 |
| CLMRSLHKLELKAKNQE [DSN1] | 1.21 ± 0.06 | 1.31 ± 0.067 | 1.19 ± 0.16 | 1.16 ± 0.051 |
| DETTVPSYYYYVDPETT [ROX3] | 2.99 ± 0.08 | 3.04 ± 0.072 | 3.01 ± 0.049 | 3.25 ± 0.065 |
| NLCGDISLEALNFYITN [SIR3] | 2.55 ± 0.064 | 2.73 ± 0.059 | 2.6 ± 0.053 | 2.74 ± 0.032 |
| AARKAEKAKSAGTQSSK [RPL24A] | 3.13 ± 0.099 | 3.11 ± 0.068 | 3.22 ± 0.082 | 3.29 ± 0.043 |
| DINVELFPVAAQDSLTV [RPB8] | 1.33 ± 0.24 | 1.82 ± 0.11 | 1.16 ± 0.23 | 1.94 ± 0.069 |
| NSQERVQDLGSAISVTN [SIR2] | 2.45 ± 0.16 | 3.11 ± 0.11 | 3.01 ± 0.092 | 3.25 ± 0.19 |

| Sequence | protein stability index (doa10∆) | protein stability index (pdr5∆) | protein stability index (san1∆) | protein stability index (ubr1∆) |
| --- | --- | --- | --- | --- |
| GSGKSNMMDAISFVLGV [SMC1] | 3.18 ± 0.073 | 3.17 ± 0.074 | 3.24 ± 0.058 | 3.32 ± 0.043 |
| KPSSPPDVKSLVQLSTM [SIR4] | 3.41 ± 0.11 | 3.26 ± 0.07 | 3.12 ± 0.088 | 3.26 ± 0.06 |
| AYGVLDSNYKWDLSVED [PRE2] | 3 ± 0.073 | 2.94 ± 0.083 | 3.26 ± 0.086 | 3.42 ± 0.056 |
| VKDELMFSPLVDSGSND [RPO21] | 3.11 ± 0.065 | 3.17 ± 0.053 | 3.22 ± 0.047 | 3.21 ± 0.048 |
| ELDPECQLQNSDNSEEE [RRP43] | 3.14 ± 0.075 | 2.95 ± 0.066 | 2.94 ± 0.054 | 3 ± 0.063 |
| QVFSVKDSTAGKKVFET [YJR042W/NUP85] | – | – | 3.09 ± 0.2 | – |
| NILWRIADKTTYDKETI [SIR4] | 3.2 ± 0.12 | 3.16 ± 0.084 | 2.98 ± 0.1 | 3.17 ± 0.052 |
| LAKKIAPGKVELAINLI [SMC2] | – | 2.88 ± 0.15 | – | 2.65 ± 0.1 |
| SVKEDVKNNQELDQEYR [SMC4] | – | 3.53 ± 0.25 | – | 3.36 ± 0.14 |
| YKCTAAMEKYLLSKSKI [MTW1] | 2.21 ± 0.038 | 2.58 ± 0.056 | 2.44 ± 0.049 | 2.69 ± 0.03 |
| ESKGNAFKHKRALVEHI [RPL19A] | 3.36 ± 0.087 | 3.38 ± 0.1 | 3.44 ± 0.047 | 3.29 ± 0.054 |
| ASDGGLYVPHSENRFPG [RPL5] | 2.19 ± 0.1 | 2.61 ± 0.079 | 2.93 ± 0.095 | 2.92 ± 0.057 |
| MLGHYLGEFSITYTPVR [RPS15] | 2.27 ± 0.19 | 2.83 ± 0.073 | 2.04 ± 0.16 | 2.86 ± 0.18 |
| DYMYENGKLTSANERLF [YML031W/NDC1] | 3.37 ± 0.17 | 3.28 ± 0.11 | 3.1 ± 0.11 | 3.23 ± 0.095 |
| LSEDELRELDVELIESK [SMC4] | 3.33 ± 0.18 | 3.72 ± 0.24 | 3.4 ± 0.11 | 3.23 ± 0.073 |
| DDDILIIRPILGKVRFA [SRB4] | 1.51 ± 0.056 | 1.66 ± 0.092 | 1.93 ± 0.15 | 2.56 ± 0.05 |
| WAEHLSDEVKRRFYKNW [RPL3] | 3.31 ± 0.2 | 2.9 ± 0.25 | 3.34 ± 0.14 | 3.37 ± 0.17 |
| TGGQTIDNGTGRTGNGN [MED6] | 3.06 ± 0.13 | 2.82 ± 0.066 | 3.26 ± 0.079 | 2.72 ± 0.063 |
| SIVGVDLSSAASASGAA [FAS2] | 1.77 ± 0.13 | 1.53 ± 0.11 | – | 1.62 ± 0.18 |
| LTDKDAFETHYRRLFAK [CDC53] | 2.94 ± 0.057 | 3.19 ± 0.067 | 2.97 ± 0.047 | 2.97 ± 0.043 |
| LVELMFIRSTNSWFDVT [FAS1] | 1.65 ± 0.092 | 1.98 ± 0.072 | 1.72 ± 0.2 | 1.51 ± 0.044 |
| ILAMTYSENGKHDSLRY [RPN1] | 3.28 ± 0.23 | – | 2.73 ± 0.2 | 2.62 ± 0.29 |
| LGFEVKDQALIGTINSI [SIR2] | 2.12 ± 0.051 | 2.48 ± 0.062 | 2.27 ± 0.054 | 2.35 ± 0.073 |
| DLSEKILNDIETLEHNP [BRR2] | 3.06 ± 0.055 | 3.21 ± 0.07 | 3.05 ± 0.055 | 3.13 ± 0.043 |
| YQELFIQPKNSDDQQEA [YML103C/NUP188] | 2.68 ± 0.066 | 2.31 ± 0.061 | 2.71 ± 0.053 | 2.64 ± 0.054 |
| SGGSRNTSESLLVDIQK [SMC2] | 2.59 ± 0.14 | 2.22 ± 0.16 | 2.33 ± 0.12 | 1.73 ± 0.13 |
